T1: FX zymogen (UniProt P00742 41-179; P00742 183-488)
T1 chain 1: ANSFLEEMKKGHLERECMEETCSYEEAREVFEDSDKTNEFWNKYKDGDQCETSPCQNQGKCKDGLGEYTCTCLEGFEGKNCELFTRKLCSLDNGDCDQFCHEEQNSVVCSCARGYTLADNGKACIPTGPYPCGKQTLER
T1 chain 2: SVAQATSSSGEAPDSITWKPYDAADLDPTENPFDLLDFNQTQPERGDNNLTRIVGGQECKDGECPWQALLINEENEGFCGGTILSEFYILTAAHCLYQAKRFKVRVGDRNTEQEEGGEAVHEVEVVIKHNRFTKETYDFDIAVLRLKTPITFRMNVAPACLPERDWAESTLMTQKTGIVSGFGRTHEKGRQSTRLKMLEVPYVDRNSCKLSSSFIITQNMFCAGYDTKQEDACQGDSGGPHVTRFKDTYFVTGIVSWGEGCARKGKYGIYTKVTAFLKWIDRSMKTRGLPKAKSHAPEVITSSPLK

B1: BIIB-12-1322 (antibody, V domains shown)
VH: QVQLVQSGAEVKKPGASVKVSCKASGYTFTSYYIHWVRQAPGQGLEWMGIINPSGGSTSYAQKFQGRVTMTRDTSTSTVYMELSSLRSEDTAVYYCARSRQRHRGDWYFDLWGRGTLVTVSS
VL: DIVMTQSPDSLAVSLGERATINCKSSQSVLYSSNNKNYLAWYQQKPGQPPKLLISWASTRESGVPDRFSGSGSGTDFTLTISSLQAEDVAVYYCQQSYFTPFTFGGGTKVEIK
B2: BIIB-12-1326 (antibody, V domains shown)
VH: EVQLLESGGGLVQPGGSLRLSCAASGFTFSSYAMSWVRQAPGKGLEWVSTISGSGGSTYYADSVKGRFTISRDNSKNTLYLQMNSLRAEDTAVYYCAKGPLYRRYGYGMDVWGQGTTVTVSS
VL: EIVLTQSPGTLSLSPGERATLSCRASQSVRSSYLAWYQQKPGQAPRLLIYGASSRATGIPDRFSGSGSGTDFTLTISRLEPEDFAVYYCQQAYSSPLTFGGGTKVEIK
B3: BIIB-12-897 (antibody, V domains shown)
VH: QLQLQESGPGLVKPSETLSLTCTVSGGSISSSSYYWGWIRQPPGKGLEWIGSIYYSGSTYYNPSLKSRVTISVDTSKNQFSLKLSSVTAADTAVYYCAREGRTYYGGWFDPWGQGTLVTVSS
VL: EIVLTQSPGTLSLSPGERATLSCRASQSVSSSYLAWYQQKPGQAPRLLIYGASSRATGIPDRFSGSGSGTDFTLTISRLEPEDFAVYYCQQDGNYPYTFGGGTKVEIK
B4: BIIB-12-923 (antibody, V domains shown)
VH: QVQLVQSGAEVKKPGASVKVSCKASGYTFTSYYMHWVRQAPGQGLEWMGIINPSGGSTSYAQKFQGRVTMTRDTSTSTVYMELSSLRSEDTAVYYCARGAGYLQRAFDIWGQGTMVTVSS
VL: DIQMTQSPSTLSASVGDRVTITCRASQSISSWLAWYQQKPGKAPKLLIYKASSLESGVPSRFSGSGSGTEFTLTISSLQPDDFATYYCQQFKSLSFTFGGGTKVEIK
B5: BIIB-12-937 (antibody, V domains shown)
VH: QVQLVQSGAEVKKPGASVKVSCKASGYTFTSYYMHWVRQAPGQGLEWMGIINPSGGSTSYAQKFQGRVTMTRDTSTSTVYMELSSLRSEDTAVYYCARPTRMLRSYGMDVWGQGTTVTVSS
VL: not shown
B6: BIIB-12-916 (antibody, V domains shown)
VH: QVQLVQSGAEVKKPGASVKVSCKASGYTFTSYYMHWVRQAPGQGLEWMGIINPSGGSTSYAQKFQGRVTMTRDTSTSTVYMELSSLRSEDTAVYYCARGGRQKATRRVDVWGQGTVVTVSS
VL: DIQMTQSPSSLSASVGDRVTITCRASQSISSYLNWYQQKPGKAPKLLIYAASSLQSGVPSRFSGSGSGTDFTLTISSLQPEDFATYYCQQLAITPFTFGGGTKVEIK
B7: BIIB-12-924 (antibody, V domains shown)
VH: QVQLVESGGGVVQPGRSLRLSCAASGFTFSSYGMHWVRQAPGKGLEWVAVISYDGSNKYYADSVKGRFTISRDNSKNTLYLQMNSLRAEDTAVYYCAKGKSSERGLNPWGQGTLVTVSS
VL: DIQMTQSPSSVSASVGDRVTITCRASQGISSWLAWYQQKPGKAPKLLIYAASSLQSGVPSRFSGSGSGTDFTLTISSLQPEDFATYYCQQGNSFPLTFGGGTKVEIK
B8: BIIB-12-1332 (antibody, V domains shown)
VH: QVQLVQSGAEVKKPGASVKVSCKASGYTFTSYYMSWVRQAPGQGLEWMGIINPSGGSTSYAQKFQGRVTMTRDTSTSTVYMELSSLRSEDTAVYYCARLGRKSRVFDIWGQGTMVTVSS
VL: DIQMTQSPSSVSASVGDRVTITCRASQGISSWLAWYQQKPGKAPKLLIYAASSLQSGVPSRFSGSGSGTDFTLTISSLQPEDFATYYCQQVNSFPLTFGGGTKVEFK
B9: BIIB-12-1320 (antibody, V domains shown)
VH: QLQLQESGPGLVKPSETLSLTCTVSGGSISSSSYYWGWIRQPPGKGLEWIGSIYYSGSTYYNPSLKSRVTISVDTSKNQFSLKLSSVTAADTAVYYCARGSGLLVREHYYYYMDVWGKGTTVTVS
VL: DIQMTQSPSSLSASVGDRVTITCRASQSISSYLNWYQQKPGKAPKLLIYAASSLQSGVPSRFSGSGSGTDFTLTISSLQPEDFATYYCQQADDTPWTFGGGTKVEIK
B10: BIIB-12-1295 (antibody, V domains shown)
VH: QVQLVQSGAEVKKPGASVKVSCKASGYTFTSYYMVWVRQAPGQGLEWMGIINPSGGSTSYAQKFQGRVTMTRDTSTSTVYMELSSLRSEDTAVYYCARVGGATTGKIGYGMDVWGQGTTVTVSS
VL: DIQMTQSPSSVSASVGDRVTITCRASQGISSWLAWYQQKPGKAPKLLIYAASNLQSGVPSRFSGSGSGTDFTLTISSLQPEDFATYYCQQAISLPITFGGGTKVEIK
B11: BIIB-12-894 (antibody, V domains shown)
VH: QLQLQESGPGLVKPSETLSLTCTVSGGSISSSSYYWGWIRQPPGKGLEWIGSIYYSGSTYYNPSLKSRVTISVDTSKNQFSLKLSSVTAADTAVYYCAREGAHSSMAGLDVWGQGTMVTVSS
VL: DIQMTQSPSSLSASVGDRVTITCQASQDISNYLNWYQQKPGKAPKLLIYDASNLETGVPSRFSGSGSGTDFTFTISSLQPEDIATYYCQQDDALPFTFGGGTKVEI
B12: BIIB-12-906 (antibody, V domains shown)
VH: QVQLVESGGGVVQPGRSLRLSCAASGFTFSSYGMHWVRQAPGKGLEWVAVISYDGSNKYYADSVKGRFTISRDNSKNTLYLQMNSLRAEDTAVYYCAKSSRHFDYWGRGTLVTVSS
VL: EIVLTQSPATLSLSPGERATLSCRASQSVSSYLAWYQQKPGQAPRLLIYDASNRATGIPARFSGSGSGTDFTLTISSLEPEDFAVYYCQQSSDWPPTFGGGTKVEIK
B13: BIIB-12-1300 (antibody, V domains shown)
VH: QVQLVESGGGVVQPGRSLRLSCAASGFTFSSYGMHWVRQAPGKGLEWVAVISYDGSNKYYADSVKGRFTISRDNSKNTLYLQMNSLRAEDTAVYYCARGSKYLHAWGQGTLVTVSS
VL: DIQMTQSPSSVSASVGDRVTITCRASQGISSWLAWYQQKPGKAPKLLIYAASSLQSGVPSRFSGSGSGTDFTLTISSLQPEDFATYYCQQASSFPPTFGGGTKVEIK
B14: BIIB-12-908 (antibody, V domains shown)
VH: QVQLVESGGGVVQPGRSLRLSCAASGFTFSSYGMHWVRQAPGKGLEWVAVISYDGSNKYYADSVKGRFTISRDNSKNTLYLQMNSLRAEDTAVYYCAKGPRGMDVWGQGTTVTVSS
VL: DIQLTQSPSSVSASVGDRVTITCRASQGISSWLAWYQQKPGKAPKLLIYGASSLQSGVPSRFSGSGSGTDFTLTISSLQPEDFATYYCQQGSSLPITFGGGTKVEIK
B15: BIIB-12-1314 (antibody, V domains shown)
VH: QVQLVESGGGVVQPGRSLRLSCAASGFTFSSYGMHWVRQAPGKGLEWVAVISYDGSNKYYADSVKGRFTISRDNSKNTLYLQMNSLRAEDTAVYYCAKGTRWAGNWGQGTLVTVSS
VL: DIQMTQSPSSVSASVGDRVTITCRASQGISSWLAWYQQKPGKAPKLLIYAASSLQSGVPSRFSGSGSGTDFTLTISSLQPEDFATYYCQQANFFPITFGGGTKVEIK
B16: BIIB-12-931 (antibody, V domains shown)
VH: QVQLVQSGAEVKKPGASVKVSCKASGYTFTSYYMSWVRQAPGQGLEWMGIINPSGGSTSYAQKFQGRVTMTRDTSTSTVYMELSSLRSEDTAVYYCARDPVQEYGPYYYYMDVWGKGTTVTVSS
VL: EIVMTQSPATLSVSPGERATLSCRASQSVSSNLAWYQQKPGQAPRLLIYGASTRATGIPARFSGSGSGTEFTLTISSLQSEDFAVYYCQQAAYWPWTFGGGTKVEIK
B17: BIIB-12-1327 (antibody, V domains shown)
VH: QVQLVESGGGVVQPGRSLRLSCAASGFTFSSYGMHWVRQAPGKGLEWVAVISYDGSNKYYADSVKGRFTISRDNSKNTLYLQMNSLRAEDTAVYYCAKLGLARGGGYGMDVWGQGTTVTVSS
VL: EIVMTQSPATQYVSPGERATLSCRASQSVSSNLAWYQQKPGQAPRLLIYGASTRATGIPARFSGSGSGTEFTLTISSLQSEDFAVYYCQQYHNFPPTFGGGTKVEIK
B18: BIIB-12-1321 (antibody, V domains shown)
VH: QVQLVQSGAEVKKPGSSVKVSCKASGGTFSSYAISWVRQAPGQGLEWMGGIIPIFGTANYAQKFQGRVTITADESTSTAYMELSSLRSEDTAVYYCARTPDTSSATDWGQGTLVTVSS
VL: EIVMTQSPATLSLSPGERATLSCRASQSVSSYLAWYQQKPGQAPRLLIYDSSNRATGIPARFSGSGSGTDFTLTISSLEPEDFAVYYCQQFTNLPYTFGGGTKVEIK
B19: BIIB-12-1301 (antibody, V domains shown)
VH: QVQLVESGGGVVQPGRSLRLSCAASGFTFSSYGMHWVRQAPGKGLEWVAVISYDGSNKYYADSVKGRFTISRDNSKNTLYLQMNSLRAEDTAVYYCARTGNYGRGMPYWGQGTLVTVSS
VL: EIVLTQSPATLSLSPGERATLSCRASQSVSSYLAWYQQKPGQAPRLLIYDASKRATGIPARFSGSGSGTDFTLTISSLEPEDFAVYYCQQSSSWPPTFGGGTKVEIK
B20: BIIB-12-1303 (antibody, V domains shown)
VH: QVQLVESGGGVVQPGRSLRLSCAASGFTFSSYGMHWVRQAPGKGLEWVAVISYDGSNKYYADSVKGRFTISRDNSKNTLYLQMNSLRAEDTAVYYCARGPTSRLFQHWGQGTLVTVS
VL: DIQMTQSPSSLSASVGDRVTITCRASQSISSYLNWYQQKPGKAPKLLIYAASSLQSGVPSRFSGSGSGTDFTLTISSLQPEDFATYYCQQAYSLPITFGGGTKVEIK
B21: BIIB-12-932 (antibody, V domains shown)
VH: QVQLVESGGGVVQPGRSLRLSCAASGFTFSSYGMHWVRQAPGKGLEWVAVISYDGSNKYYADSVKGRFTISRDNSKNTLYLQMNSLRAEDTAVYYCARLGYRGASAFDIWGQGTMVTVSS
VL: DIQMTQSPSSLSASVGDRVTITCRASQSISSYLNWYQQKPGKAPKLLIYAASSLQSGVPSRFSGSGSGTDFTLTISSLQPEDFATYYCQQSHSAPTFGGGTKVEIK
B22: BIIB-12-915 (antibody, V domains shown)
VH: QLQLQESGPGLVKPSETLSLTCTVSGGSISSSRYYWGWIRQPPGKGLEWIGSIYYSGSTYYNPSLKSRVTISVDTSKNQFSLKLSSVTAADTAVYYCARVGGGYANPWGQGTLVTVSS
VL: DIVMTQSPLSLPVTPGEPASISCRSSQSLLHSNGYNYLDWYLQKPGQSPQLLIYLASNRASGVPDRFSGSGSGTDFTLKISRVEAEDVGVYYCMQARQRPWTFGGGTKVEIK
B23: BIIB-12-933 (antibody, V domains shown)
VH: QVQLVESGGGVVQPGRSLRLSCAASGFTFSSYGMHWVRQAPGKGLEWVAVISYDGSNKYYADSVKGRFTISRDNSKNTLYLQMNSLRAEDTAVYYCARLPRFTGTAYWGQGTLVTVSS
VL: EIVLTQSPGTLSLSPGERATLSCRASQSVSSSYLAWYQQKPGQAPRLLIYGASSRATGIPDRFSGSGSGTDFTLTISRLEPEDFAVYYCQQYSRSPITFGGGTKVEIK

In general, Kd refers to the equilibrium constant for the complex coming apart.

This test has as its target T1, FX zymogen. Put plainly: BLI. Background: Biolayer interferometry detects binding as a change in optical thickness at a sensor tip.
As for B1, the Kd stood at 36.1 nM. Take B2: the Kd was determined as 24.1 nM. The Kd values of the last two molecules are within 1.5-fold of each other. The result for B3 reads 68 nM; that for B4, 33.8 nM; that for B5, 23.7 nM.

The molecule B6 showed a Kd of 15.6 nM. Molecule B7 showed a Kd of 22.3 nM.

B8 had a Kd of 53.5 nM. This Kd lies about 2.4-fold higher than the previous one. In turn, B9 returned a Kd of 8.27 nM.

B10 displayed a Kd of 42.6 nM. The result for B11 reads 38 nM. The result for B12 reads 39.6 nM; that for B13, 48.6 nM; that for B14, 34 nM. In turn, B15 registered a Kd of 10.4 nM. Regarding B16, the equilibrium dissociation constant (Kd) came to 13.5 nM. Consider B17, for which the Kd was 38.3 nM. As to B18, the Kd is 10.6 nM. As to B19, the affinity, expressed as Kd, was 65 nM. The result for B20 reads 25.9 nM; that for B21, 29.3 nM. B22 displayed a Kd of 34.4 nM. As for B23, the Kd amounted to 50.3 nM.

Values taken from patent US20230192896A1 (published 2023).
